From article PMC12340436

How the values were obtained:
Assay in all cases: EMSA
[1] = test system: RhsP2tox WT (Pseudomonas aeruginosa PA14)
[2] = target: RhsP2tox K1564E K1564E (Pseudomonas aeruginosa PA14) (UniProt A0A0H2Z8A2)
[3] = target: RhsP2tox K1574E K1574E (Pseudomonas aeruginosa PA14) (UniProt A0A0H2Z8A2)
[4] = target: RhsP2tox R1563E R1563E (Pseudomonas aeruginosa PA14) (UniProt A0A0H2Z8A2)
[5] = target: RhsP2tox WT (Pseudomonas aeruginosa PA14) (UniProt A0A0H2Z8A2)
[6] = target: RhsP2tox K1579E K1579E (Pseudomonas aeruginosa PA14) (UniProt A0A0H2Z8A2)
[7] = target: RhsP2tox K1580E K1580E (Pseudomonas aeruginosa PA14) (UniProt A0A0H2Z8A2)
[8] = target: RhsP2tox K1567E K1567E (Pseudomonas aeruginosa PA14) (UniProt A0A0H2Z8A2)

With synthetic 50-nt RNA the Kd [1] was 2.2 µM.

For “GGGACCGGCGCAGAGGAGACAAUGCCGGAUUUAAGACGCGGAUGCACUGCUGUGUGUACUGUAGAGUCUGGCGGAUGUCGACAGACUCUAUUUUUUU [McaS sRNA]”, the binding [2] was “binds more weakly”, the binding [3] was “no binding” and the binding [4] was “binds more weakly”. The Kd [5] was 6.9 µM, the binding [6] was “binds more weakly” and the binding [7] was “binds more weakly”. The binding [8] was “binds more weakly”.

With McaS sRNA the Kd [1] was 6.9 µM.

CsrB sRNA gave a Kd [1] of 0.67 µM.
